Results on 5 molecules are retold here after patent publication US20230357348A1 (AstraZeneca / MedImmune, published 2023).

Starred links: 1 amine or outer side, 2 acyl side, 3 side chain; linkers in the order of their positions; H or OH if unused. Non-standard residues stand in square brackets, D forms with d. Groups on a side chain read outwards from the residue. No end group written: not given here. *: point of attachment. C18 diacid = O=C(O)CCCCCCCCCCCCCCCCC(=O)*; γGlu = O=C(O)[C@H](CCC(=O)[*:2])N[*:1]; αMeF = C[C@](N)(Cc1ccccc1)C(=O)O; AEEA = NCCOCCOCC(=O)O; Aib = CC(C)(N)C(=O)O

The target of experiment [1] is human GLP-1 receptor (hGLP-1R) (human, UniProt P43220 24-463). The experiment can be described thus: cell-based or functional assay.
Experiment [2] has as its target human glucagon receptor (hGCGR) (human, UniProt P47871 26-477). The experiment can be described thus: cell-based or functional assay.

Sequence of human glucagon receptor (hGCGR) (P47871 26-477): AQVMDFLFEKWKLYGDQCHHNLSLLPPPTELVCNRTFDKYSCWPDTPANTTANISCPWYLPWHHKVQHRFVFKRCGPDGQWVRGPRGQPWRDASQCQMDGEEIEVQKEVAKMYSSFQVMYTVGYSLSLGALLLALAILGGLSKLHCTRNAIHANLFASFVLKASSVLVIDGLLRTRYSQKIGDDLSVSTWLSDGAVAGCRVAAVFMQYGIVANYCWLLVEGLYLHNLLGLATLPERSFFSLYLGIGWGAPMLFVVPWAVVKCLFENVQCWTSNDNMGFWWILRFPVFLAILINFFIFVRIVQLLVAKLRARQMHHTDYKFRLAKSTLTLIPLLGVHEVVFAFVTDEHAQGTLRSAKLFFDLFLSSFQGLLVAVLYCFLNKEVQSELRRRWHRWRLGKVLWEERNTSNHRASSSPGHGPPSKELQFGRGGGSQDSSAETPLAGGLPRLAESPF

B1: Peptide 142 (peptide)
peptide: H[Aib]QGTFTSDVSK[αMeF]LDSK([AEEA-AEEA-γGlu-C18 diacid])RARDFVAWLLE[Aib]G-OH
modifications: N-terminus assumed
SMILES: CC(C)C[C@H](NC(=O)[C@H](Cc1c[nH]c2ccccc12)NC(=O)[C@H](C)NC(=O)[C@@H](NC(=O)[C@H](Cc1ccccc1)NC(=O)[C@H](CC(=O)O)NC(=O)[C@H](CCCNC(=N)N)NC(=O)[C@H](C)NC(=O)[C@H](CCCNC(=N)N)NC(=O)[C@H](CCCCNC(=O)COCCOCCNC(=O)COCCOCCNC(=O)CC[C@H](NC(=O)CCCCCCCCCCCCCCCCC(=O)O)C(=O)O)NC(=O)[C@H](CO)NC(=O)[C@H](CC(=O)O)NC(=O)[C@H](CC(C)C)NC(=O)[C@](C)(Cc1ccccc1)NC(=O)[C@H](CCCCN)NC(=O)[C@H](CO)NC(=O)[C@@H](NC(=O)[C@H](CC(=O)O)NC(=O)[C@H](CO)NC(=O)[C@@H](NC(=O)[C@H](Cc1ccccc1)NC(=O)[C@@H](NC(=O)CNC(=O)[C@H](CCC(N)=O)NC(=O)C(C)(C)NC(=O)[C@@H](N)Cc1c[nH]cn1)[C@@H](C)O)[C@@H](C)O)C(C)C)C(C)C)C(=O)N[C@@H](CC(C)C)C(=O)N[C@@H](CCC(=O)O)C(=O)NC(C)(C)C(=O)NCC(=O)O
B1: the “hGLP-1R EC50 (pM)” value in experiment [1] turned out to be 59.4 pM. Also, the “hGluc-R EC50 (pM)” value in experiment [2] came out at 108 pM.

B2: Peptide 145 (peptide)
peptide: H[Aib]QGTFTSDVSK[αMeF]LDSK([AEEA-AEEA-γGlu-C18 diacid])RAQDFVRWLASRGI-OH
modifications: N-terminus assumed
SMILES: CC[C@H](C)[C@H](NC(=O)CNC(=O)[C@H](CCCNC(=N)N)NC(=O)[C@H](CO)NC(=O)[C@H](C)NC(=O)[C@H](CC(C)C)NC(=O)[C@H](Cc1c[nH]c2ccccc12)NC(=O)[C@H](CCCNC(=N)N)NC(=O)[C@@H](NC(=O)[C@H](Cc1ccccc1)NC(=O)[C@H](CC(=O)O)NC(=O)[C@H](CCC(N)=O)NC(=O)[C@H](C)NC(=O)[C@H](CCCNC(=N)N)NC(=O)[C@H](CCCCNC(=O)COCCOCCNC(=O)COCCOCCNC(=O)CC[C@H](NC(=O)CCCCCCCCCCCCCCCCC(=O)O)C(=O)O)NC(=O)[C@H](CO)NC(=O)[C@H](CC(=O)O)NC(=O)[C@H](CC(C)C)NC(=O)[C@](C)(Cc1ccccc1)NC(=O)[C@H](CCCCN)NC(=O)[C@H](CO)NC(=O)[C@@H](NC(=O)[C@H](CC(=O)O)NC(=O)[C@H](CO)NC(=O)[C@@H](NC(=O)[C@H](Cc1ccccc1)NC(=O)[C@@H](NC(=O)CNC(=O)[C@H](CCC(N)=O)NC(=O)C(C)(C)NC(=O)[C@@H](N)Cc1c[nH]cn1)[C@@H](C)O)[C@@H](C)O)C(C)C)C(C)C)C(=O)O
As to B2, the “hGLP-1R EC50 (pM)” value in experiment [1] was found to be 22.6 pM. For the same molecule, the “hGluc-R EC50 (pM)” value in experiment [2] came out at 4590 pM.

B3: Peptide 144 (peptide)
peptide: H[Aib]QGTFTSDVSK[αMeF]LDSK([γGlu-γGlu-AEEA-AEEA-γGlu-γGlu-C18 diacid])RARDFVRWLLE[Aib]G-OH
modifications: N-terminus assumed
SMILES: CC(C)C[C@H](NC(=O)[C@H](Cc1c[nH]c2ccccc12)NC(=O)[C@H](CCCNC(=N)N)NC(=O)[C@@H](NC(=O)[C@H](Cc1ccccc1)NC(=O)[C@H](CC(=O)O)NC(=O)[C@H](CCCNC(=N)N)NC(=O)[C@H](C)NC(=O)[C@H](CCCNC(=N)N)NC(=O)[C@H](CCCCNC(=O)CC[C@H](NC(=O)CC[C@H](NC(=O)COCCOCCNC(=O)COCCOCCNC(=O)CC[C@H](NC(=O)CC[C@H](NC(=O)CCCCCCCCCCCCCCCCC(=O)O)C(=O)O)C(=O)O)C(=O)O)C(=O)O)NC(=O)[C@H](CO)NC(=O)[C@H](CC(=O)O)NC(=O)[C@H](CC(C)C)NC(=O)[C@](C)(Cc1ccccc1)NC(=O)[C@H](CCCCN)NC(=O)[C@H](CO)NC(=O)[C@@H](NC(=O)[C@H](CC(=O)O)NC(=O)[C@H](CO)NC(=O)[C@@H](NC(=O)[C@H](Cc1ccccc1)NC(=O)[C@@H](NC(=O)CNC(=O)[C@H](CCC(N)=O)NC(=O)C(C)(C)NC(=O)[C@@H](N)Cc1c[nH]cn1)[C@@H](C)O)[C@@H](C)O)C(C)C)C(C)C)C(=O)N[C@@H](CC(C)C)C(=O)N[C@@H](CCC(=O)O)C(=O)NC(C)(C)C(=O)NCC(=O)O
For B3, in experiment [1], the “hGLP-1R EC50 (pM)” value is 45.2 pM. Moreover, in experiment [2], the “hGluc-R EC50 (pM)” value is 702 pM.

B4: Peptide 143 (peptide)
peptide: H[Aib]QGTFTSDVSK[αMeF]LDSK([AEEA-AEEA-γGlu-C18 diacid])RARDFVQWLLE[Aib]G-OH
modifications: N-terminus assumed
SMILES: CC(C)C[C@H](NC(=O)[C@H](Cc1c[nH]c2ccccc12)NC(=O)[C@H](CCC(N)=O)NC(=O)[C@@H](NC(=O)[C@H](Cc1ccccc1)NC(=O)[C@H](CC(=O)O)NC(=O)[C@H](CCCNC(=N)N)NC(=O)[C@H](C)NC(=O)[C@H](CCCNC(=N)N)NC(=O)[C@H](CCCCNC(=O)COCCOCCNC(=O)COCCOCCNC(=O)CC[C@H](NC(=O)CCCCCCCCCCCCCCCCC(=O)O)C(=O)O)NC(=O)[C@H](CO)NC(=O)[C@H](CC(=O)O)NC(=O)[C@H](CC(C)C)NC(=O)[C@](C)(Cc1ccccc1)NC(=O)[C@H](CCCCN)NC(=O)[C@H](CO)NC(=O)[C@@H](NC(=O)[C@H](CC(=O)O)NC(=O)[C@H](CO)NC(=O)[C@@H](NC(=O)[C@H](Cc1ccccc1)NC(=O)[C@@H](NC(=O)CNC(=O)[C@H](CCC(N)=O)NC(=O)C(C)(C)NC(=O)[C@@H](N)Cc1c[nH]cn1)[C@@H](C)O)[C@@H](C)O)C(C)C)C(C)C)C(=O)N[C@@H](CC(C)C)C(=O)N[C@@H](CCC(=O)O)C(=O)NC(C)(C)C(=O)NCC(=O)O
As for B4, the “hGLP-1R EC50 (pM)” value in experiment [1] came out at 19.1 pM. The “hGluc-R EC50 (pM)” value in experiment [2] was found to be 32.6 pM.

B5: Peptide 141 (peptide)
peptide: H[Aib]QGTFTSDVSK[αMeF]LDSK([AEEA-AEEA-γGlu-C18 diacid])RAQDFVAWLLE[Aib]G-OH
modifications: N-terminus assumed
SMILES: CC(C)C[C@H](NC(=O)[C@H](Cc1c[nH]c2ccccc12)NC(=O)[C@H](C)NC(=O)[C@@H](NC(=O)[C@H](Cc1ccccc1)NC(=O)[C@H](CC(=O)O)NC(=O)[C@H](CCC(N)=O)NC(=O)[C@H](C)NC(=O)[C@H](CCCNC(=N)N)NC(=O)[C@H](CCCCNC(=O)COCCOCCNC(=O)COCCOCCNC(=O)CC[C@H](NC(=O)CCCCCCCCCCCCCCCCC(=O)O)C(=O)O)NC(=O)[C@H](CO)NC(=O)[C@H](CC(=O)O)NC(=O)[C@H](CC(C)C)NC(=O)[C@](C)(Cc1ccccc1)NC(=O)[C@H](CCCCN)NC(=O)[C@H](CO)NC(=O)[C@@H](NC(=O)[C@H](CC(=O)O)NC(=O)[C@H](CO)NC(=O)[C@@H](NC(=O)[C@H](Cc1ccccc1)NC(=O)[C@@H](NC(=O)CNC(=O)[C@H](CCC(N)=O)NC(=O)C(C)(C)NC(=O)[C@@H](N)Cc1c[nH]cn1)[C@@H](C)O)[C@@H](C)O)C(C)C)C(C)C)C(=O)N[C@@H](CC(C)C)C(=O)N[C@@H](CCC(=O)O)C(=O)NC(C)(C)C(=O)NCC(=O)O
Turning to B5, in experiment [1], the “hGLP-1R EC50 (pM)” value was found to be 264 pM. The “hGluc-R EC50 (pM)” value in experiment [2] came to 392 pM.
